Numbering of substitutions follows the chain as printed. Values belong to the binder of their own block, whether it stands above or below them.
Columns and labels:
Test in all cases: SPR, vs GpH7-A5/GpH7-B3/GpL16-k0 =100
[1] = molecular target: T1, FcγRIa extracellular domain, His-tagged (human, UniProt P12314 16-292)
T1 construct: extracellular domain; also called 1a

[2] = molecular target: T2, FcγRIIa(R) extracellular domain, His-tagged (human, UniProt P12318 34-217)
T2 construct: extracellular domain; also called 2aR
T2 sequence: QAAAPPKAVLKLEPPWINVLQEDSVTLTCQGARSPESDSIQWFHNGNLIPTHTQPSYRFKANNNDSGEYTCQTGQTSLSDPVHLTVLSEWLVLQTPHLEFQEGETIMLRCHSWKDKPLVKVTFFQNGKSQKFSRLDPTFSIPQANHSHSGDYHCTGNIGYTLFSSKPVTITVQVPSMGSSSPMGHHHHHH

[3] = molecular target: T3, FcγRIIa(H) extracellular domain, His-tagged (human, UniProt P12318 34-217)
T3 construct: extracellular domain; also called 2aH
T3 sequence: T2 sequence with R134H

[4] = molecular target: T4, FcγRIIb extracellular domain, His-tagged (human, UniProt P31994 43-217)
T4 construct: extracellular domain; also called 2b
T4 sequence: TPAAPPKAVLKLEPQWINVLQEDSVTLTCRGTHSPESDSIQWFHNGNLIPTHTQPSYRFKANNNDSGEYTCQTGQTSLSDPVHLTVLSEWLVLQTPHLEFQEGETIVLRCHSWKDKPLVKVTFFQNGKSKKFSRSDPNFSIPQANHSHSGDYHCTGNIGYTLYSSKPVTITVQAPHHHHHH

[5] = molecular target: T5, FcγRIIIa extracellular domain, His-tagged (human, UniProt P08637 17-208)
T5 construct: extracellular domain; also called 3a
T5 sequence (P08637 other isoform, or with tags, fused parts or gaps): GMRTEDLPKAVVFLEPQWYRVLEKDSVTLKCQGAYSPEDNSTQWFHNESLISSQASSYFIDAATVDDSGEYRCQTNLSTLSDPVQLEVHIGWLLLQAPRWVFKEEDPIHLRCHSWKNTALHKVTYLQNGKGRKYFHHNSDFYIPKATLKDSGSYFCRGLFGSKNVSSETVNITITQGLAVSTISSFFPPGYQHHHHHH

T1 sequence (P12314 other isoform, or with tags, fused parts or gaps): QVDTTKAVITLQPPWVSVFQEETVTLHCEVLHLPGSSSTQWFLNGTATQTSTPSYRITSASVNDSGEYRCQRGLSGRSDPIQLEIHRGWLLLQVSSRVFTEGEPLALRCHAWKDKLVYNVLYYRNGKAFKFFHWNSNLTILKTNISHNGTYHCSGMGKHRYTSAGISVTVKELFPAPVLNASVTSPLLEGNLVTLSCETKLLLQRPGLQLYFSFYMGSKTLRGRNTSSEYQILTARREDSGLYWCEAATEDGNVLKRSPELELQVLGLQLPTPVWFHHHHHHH

- He/Con 1a [1]: 99.8 % of control
- He/Con 2aR [2]: 65.8 % of control
- He/Con 2aH [3]: 70.7 % of control
- He/Con 2b [4]: 50.2 % of control
- He/Con 3a [5]: 62.1 % of control
B1: GpH7-A5/GpH7-B3 variant E269_13S/GpL16-k0 (antibody, human IgG1, kappa)
heavy 1: not shown
heavy 2: not shown
light: DIVMTQSPLSLPVTPGEPASISCQASESLVHSNRNTYLHWYLQKPGQSPQLLIYKVSNRFSGVPDRFSGSGSGTDFTLKISRVEAEDVGVYYCSQNTHVPPTFGQGTKVEIERTVAAPSVFIFPPSDEQLKSGTASVVCLLNNFYPREAKVQWKVDNALQSGNSQESVTEQDSKDSTYSLSSTLTLSKADYEKHKVYACEVTHQGLSSPVTKSFNRGEC

- He/Con 1a [1]: 102 % of control
- He/Con 2aR [2]: 108 % of control
- He/Con 2aH [3]: 89.8 % of control
- He/Con 2b [4]: 87.2 % of control
- He/Con 3a [5]: 81.6 % of control
B2: GpH7-A5/GpH7-B3 variant H268_11K/GpL16-k0 (antibody, human IgG1, kappa)
heavy 1: not shown
heavy 2: not shown
light: B1 light

- He/Con 1a [1]: 104 % of control
- He/Con 2aR [2]: 77.3 % of control
- He/Con 2aH [3]: 153 % of control
- He/Con 2b [4]: 60.7 % of control
- He/Con 3a [5]: 126 % of control
B3: GpH7-A5/GpH7-B3 variant G236_20W/GpL16-k0 (antibody, human IgG1, kappa)
heavy 1: not shown
heavy 2: not shown
light: B1 light

- He/Con 1a [1]: 101 % of control
- He/Con 2aR [2]: 92.5 % of control
- He/Con 2aH [3]: 90.1 % of control
- He/Con 2b [4]: 74.1 % of control
- He/Con 3a [5]: 69.7 % of control
B4: GpH7-A5/GpH7-B3 variant L234_02A/GpL16-k0 (antibody, human IgG1, kappa)
heavy 1: not shown
heavy 2: not shown
light: B1 light

- He/Con 1a [1]: 106 % of control
- He/Con 2aR [2]: 161 % of control
- He/Con 2aH [3]: 134 % of control
- He/Con 2b [4]: 251 % of control
- He/Con 3a [5]: 195 % of control
B5: GpH7-A5/GpH7-B3 variant H268_09D/GpL16-k0 (antibody, human IgG1, kappa)
heavy 1: not shown
heavy 2: not shown
light: B1 light

- He/Con 1a [1]: 104 % of control
- He/Con 2aR [2]: 102 % of control
- He/Con 2aH [3]: 91.2 % of control
- He/Con 2b [4]: 93.4 % of control
- He/Con 3a [5]: 84.1 % of control
B6: GpH7-A5/GpH7-B3 variant H268_07I/GpL16-k0 (antibody, human IgG1, kappa)
heavy 1: not shown
heavy 2: not shown
light: B1 light

- He/Con 1a [1]: 99.2 % of control
- He/Con 2aR [2]: 72.4 % of control
- He/Con 2aH [3]: 84.1 % of control
- He/Con 2b [4]: 57.8 % of control
- He/Con 3a [5]: 55.8 % of control
B7: GpH7-A5/GpH7-B3 variant L234_01G/GpL16-k0 (antibody, human IgG1, kappa)
heavy 1: not shown
heavy 2: not shown
light: B1 light

- He/Con 1a [1]: 103 % of control
- He/Con 2aR [2]: 117 % of control
- He/Con 2aH [3]: 100 % of control
- He/Con 2b [4]: 120 % of control
- He/Con 3a [5]: 91.4 % of control
B8: GpH7-A5/GpH7-B3 variant H268_03V/GpL16-k0 (antibody, human IgG1, kappa)
heavy 1: not shown
heavy 2: not shown
light: B1 light

- He/Con 1a [1]: 104 % of control
- He/Con 2aR [2]: 91.4 % of control
- He/Con 2aH [3]: 85.9 % of control
- He/Con 2b [4]: 71.2 % of control
- He/Con 3a [5]: 75.9 % of control
B9: GpH7-A5/GpH7-B3 variant H268_08L/GpL16-k0 (antibody, human IgG1, kappa)
heavy 1: not shown
heavy 2: not shown
light: B1 light

- He/Con 1a [1]: 99.1 % of control
- He/Con 2aR [2]: 145 % of control
- He/Con 2aH [3]: 145 % of control
- He/Con 2b [4]: 101 % of control
- He/Con 3a [5]: 77 % of control
B10: GpH7-A5/GpH7-B3 variant G236_02A/GpL16-k0 (antibody, human IgG1, kappa)
heavy 1: not shown
heavy 2: not shown
light: B1 light

- He/Con 1a [1]: 105 % of control
- He/Con 2aR [2]: 143 % of control
- He/Con 2aH [3]: 115 % of control
- He/Con 2b [4]: 175 % of control
- He/Con 3a [5]: 121 % of control
B11: GpH7-A5/GpH7-B3 variant H268_02A/GpL16-k0 (antibody, human IgG1, kappa)
heavy 1: not shown
heavy 2: not shown
light: B1 light

- He/Con 1a [1]: 104 % of control
- He/Con 2aR [2]: 118 % of control
- He/Con 2aH [3]: 113 % of control
- He/Con 2b [4]: 112 % of control
- He/Con 3a [5]: 96.5 % of control
B12: GpH7-A5/GpH7-B3 variant H268_15Y/GpL16-k0 (antibody, human IgG1, kappa)
heavy 1: not shown
heavy 2: not shown
light: B1 light

- He/Con 1a [1]: 92.6 % of control
- He/Con 2aR [2]: 124 % of control
- He/Con 2aH [3]: 116 % of control
- He/Con 2b [4]: 115 % of control
- He/Con 3a [5]: 65.8 % of control
B13: GpH7-A5/GpH7-B3 variant G236_10E/GpL16-k0 (antibody, human IgG1, kappa)
heavy 1: not shown
heavy 2: not shown
light: B1 light

- He/Con 1a [1]: 104 % of control
- He/Con 2aR [2]: 128 % of control
- He/Con 2aH [3]: 104 % of control
- He/Con 2b [4]: 140 % of control
- He/Con 3a [5]: 113 % of control
B14: GpH7-A5/GpH7-B3 variant H268_19Q/GpL16-k0 (antibody, human IgG1, kappa)
heavy 1: not shown
heavy 2: not shown
light: B1 light

- He/Con 1a [1]: 104 % of control
- He/Con 2aR [2]: 134 % of control
- He/Con 2aH [3]: 100 % of control
- He/Con 2b [4]: 151 % of control
- He/Con 3a [5]: 95.7 % of control
B15: GpH7-A5/GpH7-B3 variant H268_01G/GpL16-k0 (antibody, human IgG1, kappa)
heavy 1: not shown
heavy 2: not shown
light: B1 light

- He/Con 1a [1]: 107 % of control
- He/Con 2aR [2]: 159 % of control
- He/Con 2aH [3]: 126 % of control
- He/Con 2b [4]: 242 % of control
- He/Con 3a [5]: 184 % of control
B16: GpH7-A5/GpH7-B3 variant H268_10E/GpL16-k0 (antibody, human IgG1, kappa)
heavy 1: not shown
heavy 2: not shown
light: B1 light

- He/Con 1a [1]: 106 % of control
- He/Con 2aR [2]: 137 % of control
- He/Con 2aH [3]: 114 % of control
- He/Con 2b [4]: 168 % of control
- He/Con 3a [5]: 121 % of control
B17: GpH7-A5/GpH7-B3 variant H268_13S/GpL16-k0 (antibody, human IgG1, kappa)
heavy 1: not shown
heavy 2: not shown
light: B1 light

- He/Con 1a [1]: 103 % of control
- He/Con 2aR [2]: 122 % of control
- He/Con 2aH [3]: 96.9 % of control
- He/Con 2b [4]: 117 % of control
- He/Con 3a [5]: 82 % of control
B18: GpH7-A5/GpH7-B3 variant H268_20W/GpL16-k0 (antibody, human IgG1, kappa)
heavy 1: not shown
heavy 2: not shown
light: B1 light

- He/Con 1a [1]: 103 % of control
- He/Con 2aR [2]: 105 % of control
- He/Con 2aH [3]: 112 % of control
- He/Con 2b [4]: 94.2 % of control
- He/Con 3a [5]: 96 % of control
B19: GpH7-A5/GpH7-B3 variant H268_04F/GpL16-k0 (antibody, human IgG1, kappa)
heavy 1: not shown
heavy 2: not shown
light: B1 light

- He/Con 1a [1]: 104 % of control
- He/Con 2aR [2]: 138 % of control
- He/Con 2aH [3]: 113 % of control
- He/Con 2b [4]: 164 % of control
- He/Con 3a [5]: 103 % of control
B20: GpH7-A5/GpH7-B3 variant H268_18N/GpL16-k0 (antibody, human IgG1, kappa)
heavy 1: not shown
heavy 2: not shown
light: B1 light

- He/Con 1a [1]: 102 % of control
- He/Con 2aR [2]: 71 % of control
- He/Con 2aH [3]: 70.3 % of control
- He/Con 2b [4]: 53.2 % of control
- He/Con 3a [5]: 59.7 % of control
B21: GpH7-A5/GpH7-B3 variant E269_14T/GpL16-k0 (antibody, human IgG1, kappa)
heavy 1: not shown
heavy 2: not shown
light: B1 light

- He/Con 1a [1]: 103 % of control
- He/Con 2aR [2]: 113 % of control
- He/Con 2aH [3]: 90.9 % of control
- He/Con 2b [4]: 94.3 % of control
- He/Con 3a [5]: 76 % of control
B22: GpH7-A5/GpH7-B3 variant H268_12R/GpL16-k0 (antibody, human IgG1, kappa)
heavy 1: not shown
heavy 2: not shown
light: B1 light

- He/Con 1a [1]: 96 % of control
- He/Con 2aR [2]: 135 % of control
- He/Con 2aH [3]: 140 % of control
- He/Con 2b [4]: 101 % of control
- He/Con 3a [5]: 60.3 % of control
B23: GpH7-A5/GpH7-B3 variant G236_13S/GpL16-k0 (antibody, human IgG1, kappa)
heavy 1: not shown
heavy 2: not shown
light: B1 light

- He/Con 1a [1]: 106 % of control
- He/Con 2aR [2]: 114 % of control
- He/Con 2aH [3]: 82.7 % of control
- He/Con 2b [4]: 122 % of control
- He/Con 3a [5]: 75.6 % of control
B24: GpH7-A5/GpH7-B3 variant H268_05P/GpL16-k0 (antibody, human IgG1, kappa)
heavy 1: not shown
heavy 2: not shown
light: B1 light

- He/Con 1a [1]: 101 % of control
- He/Con 2aR [2]: 87.2 % of control
- He/Con 2aH [3]: 85.8 % of control
- He/Con 2b [4]: 69 % of control
- He/Con 3a [5]: 79.5 % of control
B25: GpH7-A5/GpH7-B3 variant H268_06M/GpL16-k0 (antibody, human IgG1, kappa)
heavy 1: not shown
heavy 2: not shown
light: B1 light

- He/Con 1a [1]: 95.5 % of control
- He/Con 2aR [2]: 105 % of control
- He/Con 2aH [3]: 93.5 % of control
- He/Con 2b [4]: 174 % of control
- He/Con 3a [5]: 66.2 % of control
B26: GpH7-A5/GpH7-B3 variant G236_09D/GpL16-k0 (antibody, human IgG1, kappa)
heavy 1: not shown
heavy 2: not shown
light: B1 light

Reference: patent US20260167699A1 (Chugai, published 2026)
